# Experimental data reported in US20230122364A1 (VANDERBILT UNIVERSITY, published 2023).
# Numbering of substitutions follows the chain as printed.
# B1: COV2-2050 (antibody, V domains shown)
# VH: QVQLVQSGAEVKKPGASVKVSCKASGYTFTDYYMHWVRQAPGQGLEWMGWINPNSRGTNYAQKFQGRVTMTRDTSISTVYMELSRLTSDDTAVYYCARVVVLGYGRPNNYYDGRNVWDYWGQGTLVTVSS
# VL: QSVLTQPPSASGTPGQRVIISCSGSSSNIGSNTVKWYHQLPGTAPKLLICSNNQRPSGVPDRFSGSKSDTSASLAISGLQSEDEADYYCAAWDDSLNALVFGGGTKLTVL
# B2: COV2-2113 (antibody, V domains shown)
# VH: EVQLVESGGGLIQPGGSLRLSCAASEVTVSSNYMSWVRQAPGKGLEWVSLIYSGGTTYYADSVKGRFTISRDNSKNTLYLQMNSLRAEDTAVYYCARDFLRWHDLWGQGTLVTVSS
# VL: DIQMTQSPSSLSASVGDRVTITCQASQDINNYLNWYQQKPGKAPKLLIYDASNLETGVPLRFSGSGSGTDFIFTISSLQPEDIATYYCQQYDNLPPVFGGGTKVEIK
# B3: COV2-2098 (antibody, V domains shown)
# VH: EVQLLESGGGLIQPGGSLRLSCAASGFTFSNYAMSWVRQAPGKGLEWVSGIISTSGGATYNADSVRGRFTTSRDNSKNILYLQMNSLRGEDTAVYYCVKGLFDWFPLWGQGTMVTVSS
# VL: DIVMTQSPATLSVSPGERAILSCRASQSVRSNLAWYQQKPGQAPRLLISGASTRATAIPARFSGSGSGTEFTLTITSLQSEDCAVYYCHQYNNWPQTFGQGTKVEIK
# B4: COV2-2068 (antibody, V domains shown)
# VH: EVQLVESGGGLVQPGGSLRLSCAASGFTVSSNYMSWVRQAPGKGLEWVSVIYPGGSAFYADSVKGRFTISRHNSNNTLCLQMNSLRTEDTAVYYCARSYDILTGYRDAFDIWGQGTMVTVSS
# VL: QSVLTQPPSVSGAPGQRVTISCTGSSSNIGSGSDVHWYQQLPGTAPKLLIYGNTNRPSGVPDRFSGSKSGTSASLAITGLQAEDEADYYCQSYDSRLSGFVVFGGGTKLTVL
# B5: COV2-2082 (antibody, V domains shown)
# VH: EVQLVESGGGVVRPGGSLRLSCAASGFIFDDYDMTWVRQAPGKGLEWVSGISWNGGNTGYADSVKGRFTISRDNAKNSLYLQMNSLRAEDTALYHCAVIMSPIPRYSGYDWAGGAFDIWGQGTMVTVSS
# VL: SSELTQDPAVSVALGQTVRITCQGDSLRSYYASWYQQKPGQVPILVIYDKNNRPSGIPDRFSGSSSGNTASLTITGAQAEDEADYYCNSRDSSGNAVVFGGGTKLTVL
# B6: COV2-2103 (antibody, V domains shown)
# VH: EVQLVESGGGLVQPGGSLRLSCAASGFTFSRHWMTWVRQAPGKGLEWVANIKQDGSEKYYVDSVKGRLTISRDNAKNSLYLQMNSLRAEDTAVYYCARLGFYYGGADYWGQGTLVTVSS
# VL: NFMLTQPHSVSESPGKTVTISCTGSSGSIASNYVQWYQQRPGSAPTTVISEDNQRPSGVPDRFSGSIDSSSNSASLTISGLKTEDEADYYCQSYDGINRAWVFGGGTKLTVL
# B7: COV2-2132 (antibody, V domains shown)
# VH: B2 VH
# VL: B2 VL with I72T
# B8: COV2-2961 (antibody, V domains shown)
# VH: EVQLVQSGPEVKKPGTSVKVSCKASGFTFMSSAVQWVRQARGQRLEWIGWIVIGSGNTNYAQKFQERVTITRDMSTSTAYMELSSLRSEDTAVYYCAAPYCSSISCNDGFDIWGQGTMVTVSS
# VL: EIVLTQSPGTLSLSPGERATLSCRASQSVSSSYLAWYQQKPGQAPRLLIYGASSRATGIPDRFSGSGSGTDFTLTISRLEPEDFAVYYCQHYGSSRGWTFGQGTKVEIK
# B9: COV2-2046 (antibody, V domains shown)
# VH: EVQLVESGGGLVQPGRSLRLSCAASGFTFDDYAMHWVRQAPGKGLEWVSGISWNSGSIAYTDSVKGRFTISRDNAKNSLYLQMNSLRAEDTALYYCAKAHSTGHQYYYGMDVWGQGTTVTVSS
# VL: DIQMTQSPSSLSASVGDRVTITCRASQSISSFLNWYQQKPGKAPKLLIYAAFNLQSGVPSRFSGSGSGTDFTLTISSLQSEDFATYYCQQSYNTPYTFGQGTKLEIK
# Target: T1, prefusion conformation-stabilized SARS-CoV-2 spike ectodomain (S2Pecto) protein (SARS-CoV-2, UniProt P0DTC2 14-1213; P10104 458-484)
# Test: competition ELISA on coated S2Pecto; hACE2-FLAG binding inhibited
row,Binder,IC50
1,B1,0.063 µg/mL
2,B2,0.06 µg/mL
3,B3,0.048 µg/mL
4,B4,0.166 µg/mL
5,B5,0.043 µg/mL
6,B6,0.079 µg/mL

# Target: T1, prefusion conformation-stabilized …
# Test: ELISA on coated S2Pecto
row,Binder,EC50
1,B1,0.0017 µg/mL
2,B2,0.0018 µg/mL
3,B3,0.0013 µg/mL
4,B4,0.0074 µg/mL
5,B5,0.0011 µg/mL
6,B6,0.0029 µg/mL

# Target: T1, prefusion conformation-stabilized …
# Test: ELISA, purified IgG
row,Binder,OD 450 nm
1,B1,4.3 OD 450 nm
2,B2,4.4 OD 450 nm
3,B7,4.4 OD 450 nm
4,B3,4.3 OD 450 nm
5,B4,4.3 OD 450 nm
6,B5,4.3 OD 450 nm
7,B6,4.3 OD 450 nm
8,B8,3.6 OD 450 nm
9,B9,4.3 OD 450 nm
